# Results published in patent publication US20230357364A1 (INTERNATIONAL AIDS VACCINE INITIATIVE, published 2023).
# B1: L6.dP03H10 (antibody, V domains shown)
# VH: QVQLVQSGAEVKKPGSSVKVSCKASGGTFSIYAITWVRQAPGQGLEWMGGIIPIIGTANYAQKFQGRVTITADKSTSTAYMELSSLRSEDTAVYYCARDFRYCSSTRCYFWFDPWGQGTLVTVSS
# VL: DIQMTQSPSSLSASVGDRVTITCRASQNISSYLNWYQQEAGKAPKLLIYAASSLQSGVPSRFSGSGSGTDFTLTISSLQPEDFATYYCQQSYSTPRTFGQGTKVDIK
# B2: L6.dP02E05 (antibody, V domains shown)
# VH: QVQLVQSGSELKKPGASVKVSCKASGYTFATYALNWVRQAPGQGLEWMGWVNTNTGSPTYAQGFTGRFVFSFDTSVSTAYLQIRTLKAEDTAVYYCAVYYYDSGSPGWFDPWGQGTLVTVSS
# VL: DIQLTQSPSSLSASVGDRVTITCRASQTASSYLNWYQQKPGKAPNLLIYAASSLQSGVPSRFSGSGSVTDFTLTISSLQPEDFATYYCQQSYSTPPTFGQGTKVDIK
# notes: human IgG1
# B3: L6.dP04A03 (antibody, V domains shown)
# VH: QVQLVQSGAEVKKPGSSVKVSCKASGGTFSSSAISWVRQAPGQGLEWMGGIIPILDITNYAQKFQGRVTITADKSTSTAFMELSSLRSEDTAVYYCALRNQWDLLVYWGQGTLVTVSS
# VL: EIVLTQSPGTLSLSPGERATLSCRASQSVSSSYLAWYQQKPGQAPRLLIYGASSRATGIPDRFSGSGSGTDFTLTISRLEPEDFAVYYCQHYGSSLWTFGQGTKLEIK
# B4: L6.P4A3.1 (antibody, V domains shown)
# VH: QVQLVQSGAEVKKPGSSVKVSCKASGGIFSSSAISWVRQAPGQGLEWMGGIIPILDISNYAQKFQGRVTITADKSTSTAFMELSSLRSEDTAVYYCALTNQWDLLVYWGQGTLVTVSS
# VL: EIVLTQSPGTLSLSPGERATLSCRASQRVSSSYLAWYQQKPGQAPRLLIYGAESRATGIPDRFSGSGSGTDFTLTISRLEPEDFAVYYCQHYGSSLWTFGQGTKLEIK
# B5: L6.dP04E05 (antibody, V domains shown)
# VH: EVQLVESGGGLVQPGRSLRLSCAASGFTFDDYAMHWVRQAPGKGLEWVSGISWNSDNIGYADSVKGRFTVSRDNAKNSLYLQMNSLRAEDTALYYCTKDIHRKNDYYDILTGYYRVRYYYYAMDVWGQGTTVTVSS
# VL: QSVLTQPPSASGSPGQSVTISCTGTSSDAGGYNYVSWYQQHPGKAPKLMIYEVIKRPSGVPDRFSGSKSGNTASLTVSGLQAEDEADYYCSSFAGTSVVFGGGTKLTVL
# notes: human IgG1
# Legend:
# Assay in all cases: cell-based or functional assay
# [1] = target: T1, SARS-CoV-2 spike D614G (pseudovirus) (SARS-CoV-2, UniProt P0DTC2 14-1273)
# [2] = target: SARS-CoV-2 spike V367F (pseudovirus) (SARS-CoV-2, UniProt P0DTC2 14-1273)
# [3] = target: SARS-CoV-2 spike G476S (pseudovirus) (SARS-CoV-2, UniProt P0DTC2 14-1273)
# [4] = target: SARS-CoV-2 spike V483A (pseudovirus) (SARS-CoV-2, UniProt P0DTC2 14-1273)
# [5] = target: T1, SARS-CoV-2 spike D614G (pseudovirus); remark: listed apart in the source
Binder,neutralization IC50 [1],neutralization IC50 [2],neutralization IC50 [3],neutralization IC50 [4],PSV in HeLa-ACE2 cells IC50 [5]
B1,1.9 ng/mL,0.25 ng/mL,0.08 ng/mL,1.9 ng/mL,
B2,3.9 ng/mL,0.04 ng/mL,,3.9 ng/mL,
B3,24 ng/mL,,84 ng/mL,160 ng/mL,
B4,,,,,13 ng/mL
B5,0.52 ng/mL,0.07 ng/mL,0.16 ng/mL,0.55 ng/mL,8 ng/mL
